Assay results from paper PMC3688974.

Biological target: HLA-A*02 molecules at the surface of T1 cells (human (endogenous in T1 cells))
Assay: flow cytometry on cells; T1 cells pulsed with 20 µM NY_(157-165) peptide (three pulses, stability control; or freshly for 2 h, day control); HLA-A*02/NY_(157-165) complexes detected with a complex-specific F(ab) and a PE-conjugated second antibody 24, 48 and 96 h after the last loading

- percent of the complexes of freshly peptide-pulsed T1 cells still detected: 64%
Substance: NY-ESO-1_(157-165) peptide (from UniProt P78358 157-165)
